The values that follow come from patent publication US20250270273A1 (NEKTAR THERAPEUTICS, published 2025).

Assay [1] has as its target T1, IFNγR1 fused to the constant region of the antibody IgG1 (UniProt P15260 18-245, limits assumed).
T1 construct: also called IFNGR1; Interferon gamma receptor 1 fused to the Fc region; not shown: constant region (Fc) of IgG1, captured on the chip by an anti-human IgG antibody
T1 sequence (looked up): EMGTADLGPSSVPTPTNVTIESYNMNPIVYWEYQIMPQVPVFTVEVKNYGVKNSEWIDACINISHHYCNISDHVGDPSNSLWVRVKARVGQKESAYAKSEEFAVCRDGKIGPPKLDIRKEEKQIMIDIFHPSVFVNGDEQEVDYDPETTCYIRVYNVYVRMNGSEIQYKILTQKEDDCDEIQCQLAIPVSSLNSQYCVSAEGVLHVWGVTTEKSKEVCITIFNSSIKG
Description: SPR (Biacore, CM5 chip), IFNγR1-IgG1 Fc captured by anti-human IgG, analyte injected. As for the experimental part: Briefly, the surface of a BAcore™ CM5 sensor chip was coated with anti-human IgG antibody comprising IFNγR1 fused to the constant region of the antibody IgG₁.
Each of the IFN-γ-b protein, the M135C, S98C, and S66C cysteine muteins, and Compounds 1, 2, and 3 were separately injected onto the sensor chip which was coated with IFNγR1. The affinities were measured by determining the kinetic on-rate (kₒₙ) and the kinetic off-rate (koff) rates separately, and the ratio between kₒₙ and koff was used to calculate the Kd values with the results shown in Table 9.

The target in assay [2] is T2, IFN-γ receptor (IFNGR; IFNGR1 and IFNGR2) on human cells (human, UniProt P15260 18-489; P38484 22-337).
T2 sequence (looked up) 1: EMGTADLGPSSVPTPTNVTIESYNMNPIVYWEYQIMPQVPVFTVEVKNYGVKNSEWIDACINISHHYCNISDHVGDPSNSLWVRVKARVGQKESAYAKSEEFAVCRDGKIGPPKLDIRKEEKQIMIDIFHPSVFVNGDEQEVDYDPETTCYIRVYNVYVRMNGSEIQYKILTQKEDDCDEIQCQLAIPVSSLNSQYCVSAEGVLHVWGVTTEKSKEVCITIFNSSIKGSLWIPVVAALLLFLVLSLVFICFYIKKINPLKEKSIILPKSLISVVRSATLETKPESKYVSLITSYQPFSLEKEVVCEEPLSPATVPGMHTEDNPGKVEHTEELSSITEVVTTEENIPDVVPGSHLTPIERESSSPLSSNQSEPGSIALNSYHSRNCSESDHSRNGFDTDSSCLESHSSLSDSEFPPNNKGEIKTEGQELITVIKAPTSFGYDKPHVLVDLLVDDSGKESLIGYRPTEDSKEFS
T2 sequence (looked up) 2: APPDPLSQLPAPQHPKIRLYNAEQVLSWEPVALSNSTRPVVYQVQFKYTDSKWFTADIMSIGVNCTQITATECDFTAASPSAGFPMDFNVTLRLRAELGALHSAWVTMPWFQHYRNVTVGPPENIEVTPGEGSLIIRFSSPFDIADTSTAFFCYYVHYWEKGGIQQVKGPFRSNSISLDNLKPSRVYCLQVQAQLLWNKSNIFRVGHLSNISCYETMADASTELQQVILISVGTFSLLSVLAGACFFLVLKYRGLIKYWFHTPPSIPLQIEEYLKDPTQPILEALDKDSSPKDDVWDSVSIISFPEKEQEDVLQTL
Description: cell-based or functional assay.

The target of assay [3] is T2, IFN-γ receptor (IFNGR; IFNGR1 and …). Description: cell-based or functional assay. This is another data set of the same source.
In assay [4] the target is T1, IFNγR1 fused to the constant region of …. Description: SPR (Biacore, CM5 chip), IFNγR1-IgG1 Fc captured by anti-human IgG. For orientation: In SPR one partner is held on a chip, and binding of the other changes the refractive index at the surface.

As a reminder, the Kd is the concentration at which binding is half-saturated. In general, koff refers to the rate constant with which the complex falls apart. High values mean fast dissociation, low ones slow dissociation. By kon is commonly meant the rate constant with which the complex forms. A lower kon goes with slow association.

B1: rhIFN-γ-1b-M135C cysteine mutein (ligand)
chain: MQDPYVKEAENLKKYFNAGHSDVADNGTLFLGILKNWKEESDRKIMQSQIVSFYFKLFKNFKDDQSIQKSVETIKEDMNVKFFNSNKKKRDDFEKLTNYSVTDLNVQRKAIHELIQVMAELSPAAKTGKRKRSQCLFRGR
notes: also called IFN-γ-M135C; hIFN-γ M135C
In turn, B1 displayed a Kd in assay [1] of 0.123 nM. Also, the “EC50 in HT-29 cells, pSTAT1” value in assay [2] amounted to 1.4 ng/mL.

B2: rhIFN-γ-1b-S66C cysteine mutein (ligand)
chain: MQDPYVKEAENLKKYFNAGHSDVADNGTLFLGILKNWKEESDRKIMQSQIVSFYFKLFKNFKDDQCIQKSVETIKEDMNVKFFNSNKKKRDDFEKLTNYSVTDLNVQRKAIHELIQVMAELSPAAKTGKRKRSQMLFRGR
notes: also called IFN-γ-S66C; hIFN-γ S66C
In assay [1], B2 registered a Kd of 0.534 nM, a koff of 0.00137 s⁻¹ and a kon of 2.57e+06 M⁻¹ s⁻¹. Further, in assay [2], the “EC50 in HT-29 cells, pSTAT1” value worked out at 1.5 ng/mL.

B3: Compound 2, mono-mPEG-MAL-20K-rhIFN-γ-1b-M135C (ligand)
chain: MQDPYVKEAENLKKYFNAGHSDVADNGTLFLGILKNWKEESDRKIMQSQIVSFYFKLFKNFKDDQSIQKSVETIKEDMNVKFFNSNKKKRDDFEKLTNYSVTDLNVQRKAIHELIQVMAELSPAAKTGKRKRSQCLFRGR
modifications: Cys135 thioether-linked to linear mPEG-maleimide of about 20,000 daltons (mPEG-MAL-20K), succinimide ring closed
notes: also called mPEG-MAL-20K-M135C-IFN-γ; M135C 20K linear
In assay [1], B3 yielded a Kd of 1.88 nM, a koff of 0.00106 s⁻¹ and a kon of 637000 M⁻¹ s⁻¹. Further, in assay [3], the “EC50 (ng/mL)-% pSTAT1, CD14+CD16+ (Intermediate) monocytes of human PBMCs” value (shortened to “EC50 (ng/mL)-% pSTAT1, CD14+CD16+”) was found to be 0.179 ng/mL; the “EC50 (ng/mL)-% pSTAT1, CD14+CD16- (Classical) monocytes of human PBMCs” value came out at 1.45 ng/mL; the “EC50 (ng/mL)-% pSTAT1, CD14loCD16hi (Non-classical) monocytes of human PBMCs” value is 0.367 ng/mL; the “EC50 (ng/mL)-MFI of pSTAT1, Classical monocytes of human PBMCs” value came out at 7.62 ng/mL. Moreover, in assay [3], the “EC50 (ng/mL)-MFI of pSTAT1, Intermediate monocytes of human PBMCs” value (shortened to “EC50 … Intermediate monocytes of human PBMCs”) amounted to 4.28 ng/mL and the “EC50 (ng/mL)-MFI of pSTAT1, Non-classical monocytes of human PBMCs” value (“EC50 … Non-classical monocytes of human PBMCs” below) is 4.57 ng/mL. For the same molecule, in assay [2], the “EC50 in HT-29 cells, MHCI” value came to 0.076 ng/mL; the “EC50 in HT-29 cells, MHCII” value stood at 0.7 ng/mL; the “EC50 in HT-29 cells, PD-L1” value was found to be 1.2 ng/mL; the “EC50 in HT-29 cells, pSTAT1” value was 14 ng/mL.

B4: Compound 3, mono-mPEG2-ru-MAL-20K-rhIFN-γ-1b-M135C (ring closed) (ligand)
chain: MQDPYVKEAENLKKYFNAGHSDVADNGTLFLGILKNWKEESDRKIMQSQIVSFYFKLFKNFKDDQSIQKSVETIKEDMNVKFFNSNKKKRDDFEKLTNYSVTDLNVQRKAIHELIQVMAELSPAAKTGKRKRSQCLFRGR
modifications: Cys135 thioether-linked to branched mPEG2-maleimide of about 20,000 daltons (mPEG2-MAL-20K), succinimide ring closed
notes: also called mPEG2-MAL-20K-M135C-IFN-γ; M135C 20K branched (RC)
In assay [1], B4 had a Kd of 4.9 nM, a koff of 0.00157 s⁻¹ and a kon of 321000 M⁻¹ s⁻¹. For the same molecule, in assay [3], the “EC50 (ng/mL)-% pSTAT1, CD14+CD16+” value came out at 4.38 ng/mL; the “EC50 (ng/mL)-% pSTAT1, CD14+CD16- (Classical) monocytes of human PBMCs” value worked out at 14 ng/mL; the “EC50 (ng/mL)-% pSTAT1, CD14loCD16hi (Non-classical) monocytes of human PBMCs” value stood at 4.84 ng/mL; the “EC50 (ng/mL)-MFI of pSTAT1, Classical monocytes of human PBMCs” value is 64.2 ng/mL. In addition, in assay [3], the “EC50 … Intermediate monocytes of human PBMCs” value came to 32.7 ng/mL and the “EC50 … Non-classical monocytes of human PBMCs” value was 35 ng/mL. In addition, in assay [2], the “EC50 in HT-29 cells, MHCI” value came out at 0.17 ng/mL; the “EC50 in HT-29 cells, MHCII” value was determined as 1.8 ng/mL; the “EC50 in HT-29 cells, PD-L1” value came out at 2.2 ng/mL; the “EC50 in HT-29 cells, pSTAT1” value came to 89 ng/mL.

B5: Compound 1, mono-mPEG-MAL-10K-rhIFN-γ-1b-M135C (ligand)
chain: MQDPYVKEAENLKKYFNAGHSDVADNGTLFLGILKNWKEESDRKIMQSQIVSFYFKLFKNFKDDQSIQKSVETIKEDMNVKFFNSNKKKRDDFEKLTNYSVTDLNVQRKAIHELIQVMAELSPAAKTGKRKRSQCLFRGR
modifications: Cys135 thioether-linked to linear mPEG-maleimide of about 10,000 daltons (mPEG-MAL-10K), succinimide ring closed
notes: also called mPEG-MAL-10K-M135C-IFN-γ; M135C 10K linear
As to B5, the “fold decrease in affinity against IFN-γ-M135C” value in assay [4] was ~10 fold. Further, in assay [1], the affinity, expressed as Kd, was 1.42 nM; the koff was 0.00221 s⁻¹; the kon was 1.61e+06 M⁻¹ s⁻¹. Moreover, in assay [3], the “EC50 (ng/mL)-% pSTAT1, CD14+CD16+” value was 0.084 ng/mL; the “EC50 (ng/mL)-% pSTAT1, CD14+CD16- (Classical) monocytes of human PBMCs” value came out at 0.222 ng/mL; the “EC50 (ng/mL)-% pSTAT1, CD14loCD16hi (Non-classical) monocytes of human PBMCs” value stood at 0.106 ng/mL; the “EC50 (ng/mL)-MFI of pSTAT1, Classical monocytes of human PBMCs” value was determined as 2.16 ng/mL. In assay [3], the “EC50 … Intermediate monocytes of human PBMCs” value is 0.85 ng/mL and the “EC50 … Non-classical monocytes of human PBMCs” value worked out at 0.99 ng/mL. In assay [2], the “EC50 in HT-29 cells, MHCI” value was 0.099 ng/mL; the “EC50 in HT-29 cells, MHCII” value is 0.83 ng/mL; the “EC50 in HT-29 cells, PD-L1” value turned out to be 1.1 ng/mL; the “EC50 in HT-29 cells, pSTAT1” value is 11 ng/mL.

B6: rhIFN-γ-1b-N98C cysteine mutein (ligand)
chain: MQDPYVKEAENLKKYFNAGHSDVADNGTLFLGILKNWKEESDRKIMQSQIVSFYFKLFKNFKDDQSIQKSVETIKEDMNVKFFNSNKKKRDDFEKLTCYSVTDLNVQRKAIHELIQVMAELSPAAKTGKRKRSQMLFRGR
In the case of B6, the “EC50 in HT-29 cells, pSTAT1” value in assay [2] is 1.7 ng/mL.
